B1: RA064 (nucleic acid)
DNA: GCGCGTCCTGGATTCGCGGAAACGCGTACAGAATACCAGCATCGTCTTGATGCCCTTGGAAGTCTATCCAGCTGACGAGTCCCAAATAGGACGAAACGCGC
modifications: expressed or natural sequence
B2: RA065 (nucleic acid)
DNA: GCTGTCACCGGAATACCAGCATCGTCTTGATGCCCTTGGAAGTCCGGTCTGATGAGTCCCAGAAGGACGAAACAGC
modifications: expressed or natural sequence
B3: RA007 (nucleic acid)
DNA: GCGCGTCCTGGATTCGCGGAAACGCGTACATCCAGCTGACGAGTCCCAAATAGGACGAAACGCGAGAATACCAGCATCGTCTTGATGCCCTTGGAAGTCTCGCGC
modifications: expressed or natural sequence
B4: RA005 (nucleic acid)
DNA: GCGCGTCCTGGATTCGCGGAAACCGGAATACCAGCATCGTCTTGATGCCCTTGGAAGTCCGGCGCGTACATCCAGCTGACGAGTCCCAAATAGGACGAAACGCGC
modifications: expressed or natural sequence
B5: RA055 (nucleic acid)
DNA: GCGCGTCCTGGATTCGCGGCGAGAATACCAGCATCGTCTTGATGCCCTTGGAAGTCTCGAAACGCGTACATCCAGCTGACGAGTCCCAAATAGGACGAAACGCGC
modifications: expressed or natural sequence
B6: RA057 (nucleic acid)
DNA: GCGCGTCCTGGATTCGCGGAAACGCGTACATCCAGCTGACGAGTCCCAAATAGGACAGAATACCAGCATCGTCTTGATGCCCTTGGAAGTCTGAAACGCGC
modifications: expressed or natural sequence
B7: RA077 (nucleic acid)
DNA: GCGCGTCCAGTGATACCAGCATCGTCTTGATGCCCTTGGCAGCACTTGGATTCGCGGAAACGCGTACATCCAGCTGACGAGTCCCAAATAGGACGAAACGCGC
modifications: expressed or natural sequence
B8: RA056 (nucleic acid)
DNA: GCGCGTCCTGGATTCGCGGAAACGCGTACATCCAGCTGACGAGTCCCGAGAATACCAGCATCGTCTTGATGCCCTTGGAAGTCTCAAATAGGACGAAACGCGC
modifications: expressed or natural sequence
B9: RA069 (nucleic acid)
DNA: GCGCGTCCTGGATTCGCGGAAACGCGTACATCCAGCTGACGAGTCCCGGAATACCAGCATCGTCTTGATGCCCTTGGAAGTCCAAATAGGACGAAACGCGC
modifications: expressed or natural sequence
B10: RA068 (nucleic acid)
DNA: GCGCGTCCTGGATTCGCCCGGAATACCAGCATCGTCTTGATGCCCTTGGAAGTCCGGGGAAACGCGTACATCCAGCTGACGAGTCCCAAATAGGACGAAACGCGC
modifications: expressed or natural sequence
B11: RA063 (nucleic acid)
DNA: GCGCGTCCTGGATTCAGTGATACCAGCATCGTCTTGATGCCCTTGGCAGCACTGCGGAAACGCGTACATCCAGCTGACGAGTCCCAAATAGGACGAAACGCGC
modifications: expressed or natural sequence
B12: RA074 (nucleic acid)
DNA: GCGCGTCCTGGATTCGCGGAAACGCGTACATCCAGCTGACGAGTCAGAATACCAGCATCGTCTTGATGCCCTTGGAAGTCTCCAAATAGGACGAAACGCGC
modifications: expressed or natural sequence
B13: RA059 (nucleic acid)
DNA: GCGCGTCCTGGATTCCCGGAATACCAGCATCGTCTTGATGCCCTTGGAAGTCCGGGCGGAAACGCGTACATCCAGCTGACGAGTCCCAAATAGGACGAAACGCGC
modifications: expressed or natural sequence
B14: RA052 (nucleic acid)
DNA: GCGCGTCCTGGATTCGCGGAAACGCGTACATCCAGCTGACGAGAGTGATACCAGCATCGTCTTGATGCCCTTGGCAGCACTTCCCAAATAGGACGAAACGCGC
modifications: expressed or natural sequence
B15: RA060 (nucleic acid)
DNA: GCGCGTCCTGGATTCGCGGAAACGCGTACATCCAGCTGACGAGTCCCAAATAGGACGAAACGCGGGAATACCAGCATCGTCTTGATGCCCTTGGAAGTCCC
modifications: expressed or natural sequence
B16: RA006 (nucleic acid)
DNA: GCGCGTCCTGGATTCGCGGAAACGCGTACATCCAGCTGACGAGTCCCAAATAGGACGAAACGAGTGATACCAGCATCGTCTTGATGCCCTTGGCAGCACTCGC
modifications: expressed or natural sequence
B17: RA071 (nucleic acid)
DNA: GCGCGTCCTGGATTCGCGGAAACGCGTACATCCAGCTGACGAGTCCCAAATAGGACGAAACGCGGAATACCAGCATCGTCTTGATGCCCTTGGAAGTCCGCGC
modifications: expressed or natural sequence
B18: RA075 (nucleic acid)
DNA: GCGCGTCCTGGATTCGCGGAAACGCGTACATCCAGCTGACGAGTCCCAAATAGGACGAAAGTGATACCAGCATCGTCTTGATGCCCTTGGCAGCACTACGCGC
modifications: expressed or natural sequence
B19: RA061 (nucleic acid)
DNA: GCGCGTCCTGGATTCGCGGAAACGCGTACATCCAGCTGACGAGTCCCAAATAGGACGAAACGCGCGGAATACCAGCATCGTCTTGATGCCCTTGGAAGTCC
modifications: expressed or natural sequence
B20: RA066 (nucleic acid)
DNA: GCGCGTCCTGGATTCGCGGAAAGAATACCAGCATCGTCTTGATGCCCTTGGAAGTCTACGCGTACATCCAGCTGACGAGTCCCAAATAGGACGAAACGCGC
modifications: expressed or natural sequence
B21: RA058 (nucleic acid)
DNA: GCGCGTCCTGGATTCGCGGAAACGCGTACATCCAGAGAATACCAGCATCGTCTTGATGCCCTTGGAAGTCTCGCTGACGAGTCCCAAATAGGACGAAACGCGC
modifications: expressed or natural sequence
B22: RA062 (nucleic acid)
DNA: GCGCGTCCTGGATTCGCGGAAACGCCCGGAATACCAGCATCGTCTTGATGCCCTTGGAAGTCCGGGTACATCCAGCTGACGAGTCCCAAATAGGACGAAACGCGC
modifications: expressed or natural sequence
B23: RA054 (nucleic acid)
DNA: GAGTGATACCAGCATCGTCTTGATGCCCTTGGCAGCACTCGCGTCCTGGATTCGCGGAAACGCGTACATCCAGCTGACGAGTCCCAAATAGGACGAAACGCGC
modifications: expressed or natural sequence
B24: RA053 (nucleic acid)
DNA: GCGCGTCCTGGATTCGCGGAAACGCGTACATCCAGAGTGATACCAGCATCGTCTTGATGCCCTTGGCAGCACTCTGACGAGTCCCAAATAGGACGAAACGCGC
modifications: expressed or natural sequence
B25: RA073 (nucleic acid)
DNA: GCGCGTCCTGGATTCGCGGAAACGCGTACACGGAATACCAGCATCGTCTTGATGCCCTTGGAAGTCCGTCCAGCTGACGAGTCCCAAATAGGACGAAACGCGC
modifications: expressed or natural sequence
B26: RA076 (nucleic acid)
DNA: GCGCGTCCTGGATTCGCGGGAGAATACCAGCATCGTCTTGATGCCCTTGGAAGTCTCAAACGCGTACATCCAGCTGACGAGTCCCAAATAGGACGAAACGCGC
modifications: expressed or natural sequence
B27: RA067 (nucleic acid)
DNA: GCGCGTCCTGGATTCGCGGAAACGCGTACATCCAGTGATACCAGCATCGTCTTGATGCCCTTGGCAGCACTAGCTGACGAGTCCCAAATAGGACGAAACGCGC
modifications: expressed or natural sequence
B28: RA072 (nucleic acid)
DNA: GCGCGTCCTGGATTCGCGGAAACGCGTACCGAGAATACCAGCATCGTCTTGATGCCCTTGGAAGTCTCGATCCAGCTGACGAGTCCCAAATAGGACGAAACGCGC
modifications: expressed or natural sequence
B29: RA070 (nucleic acid)
DNA: GCGCGTCCTGGATTCGCGGAAACGCGTACATCCAGCTGAGTGATACCAGCATCGTCTTGATGCCCTTGGCAGCACTACGAGTCCCAAATAGGACGAAACGCGC
modifications: expressed or natural sequence

tested on: Renilla luciferase RNA; assay: Barcoded aptazyme variant library screen: un-cleaved Renilla luciferase RNA by barcode read counts, HEK293-T cells; format: cell-based; conditions: un-cleaved Renilla luciferase RNA, HEK293-T cells cultured with 1 mM theophylline (ON) over without theophylline (OFF); barcode read counts, triplicate
Procedure, shortened: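 Aptazyme variants (seven theophylline aptamers inserted after each T3H48 ribozyme nucleotide, 9-nt barcoded) cloned into the 3′ UTR of Renilla luciferase in psiCHECK-2; cells cultured ± theophylline, in triplicate. RNA and DNA barcodes amplified and sequenced; normalized read counts gave un-cleaved RNA fraction and ON/OFF fold-change.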

B1 and B2 are the same in “Fold change in RNA expression between the ON state and the OFF state” value (“Fold change” below): 1.9 fold for the first, 1.9 fold for the second.

Compared with B3, B4 is higher in “Fold change” value: 4.5 fold for the first, 5.2 fold for the second.

B5 and B6 are the same in “Fold change” value: 2.0 fold for the first, 2.0 fold for the second.

Compared with B7, B8 is higher in “Fold change” value: 1.8 fold for the first, 2.0 fold for the second.

B9 and B10 are the same in “Fold change” value: 1.8 fold for the first, 1.8 fold for the second.

Compared with B11, B12 is lower in “Fold change” value: 1.9 fold for the first, 1.8 fold for the second.

Compared with B13, B14 is higher in “Fold change” value: 1.9 fold for the first, 2.0 fold for the second.

Going from B15 to B16, the “Fold change” value rises from 1.9 fold to 5.0 fold.

B17 and B18 are the same in “Fold change” value: 1.8 fold for the first, 1.8 fold for the second.

B19 and B20 are the same in “Fold change” value: 1.9 fold for the first, 1.9 fold for the second.

Compared with B21, B22 is lower in “Fold change” value: 2.0 fold for the first, 1.9 fold for the second.

B23 and B24 are the same in “Fold change” value: 2.0 fold for the first, 2.0 fold for the second.

B25 and B26 are the same in “Fold change” value: 1.8 fold for the first, 1.8 fold for the second.

B27 and B28 are the same in “Fold change” value: 1.8 fold for the first, 1.8 fold for the second.

In the case of B29, the “Fold change” value is reported as 1.8 fold.

— patent publication US20260167959A1, “APTAZYME-BASED REGULATABLE GENE EXPRESSION SYSTEMS” (REJUVENATE BIO INC, priority 2022, published 2026)
